Data: patent US7067474B1, “Agents for treating human illnesses based on β-catenin, and the production and use thereof” (Max-Delbruck-Centrum fur Molekulare Medizin, priority 1998, dated 2006)
“Also recorded” adds a separate entry of the source.

T1: APC (20 amino acid repeats) (Homo sapiens, UniProt P25054)
T1 construct: for the amino acids Ser1259Asp 1400 (APC 20 amino acid repeats); expressed in transfected cells; host or cells: yeast (two-hybrid, Matchmaker, Clontech)
T1 sequence (P25054 1253-1394 limits assumed): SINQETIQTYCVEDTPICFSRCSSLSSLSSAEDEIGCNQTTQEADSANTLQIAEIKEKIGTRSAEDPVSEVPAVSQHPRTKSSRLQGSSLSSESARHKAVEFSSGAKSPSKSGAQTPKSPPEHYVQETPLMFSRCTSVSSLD

T2: APC (15 amino acid repeats) (Homo sapiens, UniProt P25054)
T2 construct: of human APC for the amino acids His1012–Glu1215 (APC 15 amino acid repeats); expressed in transfected cells; host or cells: yeast (two-hybrid, Matchmaker, Clontech)
T2 sequence (P25054 1006-1209 limits assumed): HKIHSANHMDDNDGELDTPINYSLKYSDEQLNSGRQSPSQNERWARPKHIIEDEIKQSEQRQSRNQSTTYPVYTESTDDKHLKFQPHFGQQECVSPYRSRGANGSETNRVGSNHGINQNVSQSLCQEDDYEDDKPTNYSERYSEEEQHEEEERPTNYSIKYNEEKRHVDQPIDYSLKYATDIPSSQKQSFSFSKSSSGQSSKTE


Tests used:
[1] = target: conductin amino acids Ala342-Arg465 fused to Lex-A (vector BTM 116) (UniProt P0A7C2); assay: yeast 2-hybrid, β-galactosidase reporter; percent of wild type β-catenin
[2] = target: T1, APC (20 amino acid repeats); assay: yeast 2-hybrid: interaction of β-catenin mutants with APC 20 amino acid repeats; format: binding; settings: yeast 2-hybrid, alanine mutants
Description: (§1) The mutagenesis of β-catenin in the armadillo repeats 3–8 was carried out by means of the “mutagenesis kit” of the company Clontech according to the producer's record and the mutants were checked by sequencing (FIG. 5). In all mutants the original amino acid was substituted by alanine. For analyzing the interactions the cDNA of human β-catenin (armadillo repeat 3 up to the C-terminal end of the protein) coding for the amino acids Leu218–Leu7 μl or its mutants was cloned into the fusion vector for the activation domain of Gal-4 (pGAD424, Clontech). The cDNA for the binding domains of the interaction partners was cloned into the Lex-A fusion vector BTM 116. To this end, the cDNA of LEF-1 for the amino acids 1–99, conductin for the amino acids Ala342–ARG465; of human APC for the amino acids His1012–Glu1215 (APC 15 amino acid repeats) and for the amino acids Ser1259Asp 1400 (APC 20 amino acid repeats) and E-cadherin for the amino acids Gin773–Asp884 (cytoplasmatic domain) were amplified with the respective primers PCR. The interaction of the Lex-A hybrids with β-catenin and its mutants was quantified by means of the β-galactosidase reporter activity in the yeast 2-hybrid system (report: “Matchmaker”. Clontech) (Tab. 2 and FIG. 6).

conductin = target: T3, conductin (Mus musculus, UniProt O88566); assay: yeast 2-hybrid: interaction of β-catenin mutants with conductin; format: binding; settings: for Interaction With Conductin, share of wild type β-catenin interaction: yeast 2-hybrid, alanine mutants
T3 construct: conductin for the amino acids Ala342–ARG465; expressed in transfected cells; host or cells: yeast (two-hybrid, Matchmaker, Clontech)
Description: as §1

LEF-1 = target: T4, LEF-1 (Mus musculus, UniProt P27782); assay: yeast 2-hybrid: interaction of β-catenin mutants with LEF-1; format: binding
T4 construct: the cDNA of LEF-1 for the amino acids 1–99; expressed in transfected cells; host or cells: yeast (two-hybrid, Matchmaker, Clontech)
Description: as §1

[3] = target: T2, APC (15 amino acid repeats); assay: yeast 2-hybrid: interaction of β-catenin mutants with APC 15 amino acid repeats; format: binding; settings: yeast 2-hybrid, alanine mutants
Description: as §1

T3 sequence (O88566 343-465 limits assumed): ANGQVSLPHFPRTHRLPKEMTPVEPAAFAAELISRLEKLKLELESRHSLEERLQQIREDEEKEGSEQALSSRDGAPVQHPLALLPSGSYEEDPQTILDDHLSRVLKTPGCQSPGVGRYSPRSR
T4 sequence (P27782 1-99): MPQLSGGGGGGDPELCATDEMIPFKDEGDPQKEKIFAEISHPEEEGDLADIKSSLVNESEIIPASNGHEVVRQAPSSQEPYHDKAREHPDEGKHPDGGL
Sequence of conductin amino acids Ala342-Arg465 fused to Lex-A (vector BTM 116) (P0A7C2 other isoform, or with tags, fused parts or gaps limits assumed, form in doubt): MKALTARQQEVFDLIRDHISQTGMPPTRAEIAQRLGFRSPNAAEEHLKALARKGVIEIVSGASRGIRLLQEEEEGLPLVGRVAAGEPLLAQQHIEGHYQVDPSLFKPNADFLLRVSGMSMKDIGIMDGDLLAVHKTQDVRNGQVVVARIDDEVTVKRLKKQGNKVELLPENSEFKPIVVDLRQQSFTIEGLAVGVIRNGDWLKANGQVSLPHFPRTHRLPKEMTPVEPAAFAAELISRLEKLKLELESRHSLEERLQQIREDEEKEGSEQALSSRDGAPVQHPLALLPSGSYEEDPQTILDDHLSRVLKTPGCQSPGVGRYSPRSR

Row | Molecule | share of the interaction with wild type β-catenin in percent [1] [%] | Interaction With APC-20, share of wild type β-catenin interaction [2] | Interaction With Conductin, share of wild type β-catenin interaction (conductin) | interaction with conductin (conductin; β-catenin mutation, in words) | interaction with LEF-1/TCF-4 (LEF-1; β-catenin mutation, in words) | Interaction With APC-15, share of wild type β-catenin interaction [3] | Interaction With LEF-1, share of wild type β-catenin interaction (LEF-1; yeast 2-hybrid, alanine mutants)
1 | human β-catenin (Leu218-Leu781) mutant Lys 394 to alanine, Gal-4 activation domain fusion (from UniProt P35222 218-781) | 42 | – | – | – | – | – | –
2 | Arg 469: human β-catenin mutant, Arg 469 substituted by alanine (arm 8) (protein, left off: large carriers; small tags and cut ends) LHNLSHHREGLLAIFKSGGIPALVKMLGSPVDSVLFYAITTLHNLLLHQEGAKMAVRLAGGLQKMVALLNKTNVKFLAITTDCLQILAYGNQESKLIILASGGPQALVNIMRTYTYEKLLWTTSRVLKVLSVCSSNKPAIVEAGGMQALGLHLTDPSQRLVQNCLWTLRNLSDAATKQEGMEGLLGTLVQLLGSDDINVVTCAAGILSNLTCNNYKNKMMVCQVGGIEALVRTVLRAGDREDITEPAICALAHLTSRHQEAEMAQNAVRLHYGLPVVVKLLHPPSHWPLIKATVGLIRNLALCPANHAPLREQGAIPRLVQLLVRAHQDTQRRTSMGGTQQQFVEGVRMEEIVEGCTGALHILARDVHNRIVIRGLNTIPLFVQLLYSPIENIQRVAAGVLCELAQDKEAAEAIEAEGATAPLTELLHSRNEGVATYAAAVLFRMSEDKPQDYKKRLSVELTSSLFRTEPMAWNETADLGLDIGAQGEPLGYRQDDPSYRSFHSGGYGQDALGMDPMMEHEMGGHHPGADYPVDGLPDLGHAQDLMDGLPPGDSNQLAWFDTDL | – | — (Interactions marked by — correspond to 60–100% of the wild type interaction) | — (Interactions marked by — correspond to 60–100% of the wild type interaction) | – | blocking the interaction; also recorded: no interaction with LEF-1/TCF-4 | — (Interactions marked by — correspond to 60–100% of the wild type interaction) | –
3 | Arg 274: human β-catenin mutant, Arg 274 substituted by alanine (arm 4) (protein, left off: large carriers; small tags and cut ends) LHNLSHHREGLLAIFKSGGIPALVKMLGSPVDSVLFYAITTLHNLLLHQEGAKMAVALAGGLQKMVALLNKTNVKFLAITTDCLQILAYGNQESKLIILASGGPQALVNIMRTYTYEKLLWTTSRVLKVLSVCSSNKPAIVEAGGMQALGLHLTDPSQRLVQNCLWTLRNLSDAATKQEGMEGLLGTLVQLLGSDDINVVTCAAGILSNLTCNNYKNKMMVCQVGGIEALVRTVLRAGDREDITEPAICALRHLTSRHQEAEMAQNAVRLHYGLPVVVKLLHPPSHWPLIKATVGLIRNLALCPANHAPLREQGAIPRLVQLLVRAHQDTQRRTSMGGTQQQFVEGVRMEEIVEGCTGALHILARDVHNRIVIRGLNTIPLFVQLLYSPIENIQRVAAGVLCELAQDKEAAEAIEAEGATAPLTELLHSRNEGVATYAAAVLFRMSEDKPQDYKKRLSVELTSSLFRTEPMAWNETADLGLDIGAQGEPLGYRQDDPSYRSFHSGGYGQDALGMDPMMEHEMGGHHPGADYPVDGLPDLGHAQDLMDGLPPGDSNQLAWFDTDL | – | 40% | 29% | no interaction with conductin | – | — (Interactions marked by — correspond to 60–100% of the wild type interaction) | — (Interactions marked by — correspond to 60–100% of the wild type interaction)
4 | Lys 345: human β-catenin mutant, Lys 345 substituted by alanine (arm 5) (protein, left off: large carriers; small tags and cut ends) LHNLSHHREGLLAIFKSGGIPALVKMLGSPVDSVLFYAITTLHNLLLHQEGAKMAVRLAGGLQKMVALLNKTNVKFLAITTDCLQILAYGNQESKLIILASGGPQALVNIMRTYTYEKLLWTTSRVLAVLSVCSSNKPAIVEAGGMQALGLHLTDPSQRLVQNCLWTLRNLSDAATKQEGMEGLLGTLVQLLGSDDINVVTCAAGILSNLTCNNYKNKMMVCQVGGIEALVRTVLRAGDREDITEPAICALRHLTSRHQEAEMAQNAVRLHYGLPVVVKLLHPPSHWPLIKATVGLIRNLALCPANHAPLREQGAIPRLVQLLVRAHQDTQRRTSMGGTQQQFVEGVRMEEIVEGCTGALHILARDVHNRIVIRGLNTIPLFVQLLYSPIENIQRVAAGVLCELAQDKEAAEAIEAEGATAPLTELLHSRNEGVATYAAAVLFRMSEDKPQDYKKRLSVELTSSLFRTEPMAWNETADLGLDIGAQGEPLGYRQDDPSYRSFHSGGYGQDALGMDPMMEHEMGGHHPGADYPVDGLPDLGHAQDLMDGLPPGDSNQLAWFDTDL | – | 0% | 22% | – | – | — (Interactions marked by — correspond to 60–100% of the wild type interaction) | –
5 | Lys 354: human β-catenin mutant, Lys 354 substituted by alanine (arm 6) (protein, left off: large carriers; small tags and cut ends) LHNLSHHREGLLAIFKSGGIPALVKMLGSPVDSVLFYAITTLHNLLLHQEGAKMAVRLAGGLQKMVALLNKTNVKFLAITTDCLQILAYGNQESKLIILASGGPQALVNIMRTYTYEKLLWTTSRVLKVLSVCSSNAPAIVEAGGMQALGLHLTDPSQRLVQNCLWTLRNLSDAATKQEGMEGLLGTLVQLLGSDDINVVTCAAGILSNLTCNNYKNKMMVCQVGGIEALVRTVLRAGDREDITEPAICALRHLTSRHQEAEMAQNAVRLHYGLPVVVKLLHPPSHWPLIKATVGLIRNLALCPANHAPLREQGAIPRLVQLLVRAHQDTQRRTSMGGTQQQFVEGVRMEEIVEGCTGALHILARDVHNRIVIRGLNTIPLFVQLLYSPIENIQRVAAGVLCELAQDKEAAEAIEAEGATAPLTELLHSRNEGVATYAAAVLFRMSEDKPQDYKKRLSVELTSSLFRTEPMAWNETADLGLDIGAQGEPLGYRQDDPSYRSFHSGGYGQDALGMDPMMEHEMGGHHPGADYPVDGLPDLGHAQDLMDGLPPGDSNQLAWFDTDL | – | — (Interactions marked by — correspond to 60–100% of the wild type interaction) | 43% | – | – | 54% | –

More lines, main results first:

Row | share of the interaction with wild type β-catenin in percent [1] [%] | Interaction With APC-20, share of wild type β-catenin interaction [2] | Interaction With Conductin, share of wild type β-catenin interaction (conductin) | interaction with conductin (conductin; β-catenin mutation, in words) | Molecule | interaction with LEF-1/TCF-4 (LEF-1; β-catenin mutation, in words) | Interaction With APC-15, share of wild type β-catenin interaction [3] | Interaction With LEF-1, share of wild type β-catenin interaction (LEF-1; yeast 2-hybrid, alanine mutants)
6 | 36 | – | – | – | human β-catenin (Leu218-Leu781) mutant Arg 457 to alanine, Gal-4 activation domain fusion (from UniProt P35222 218-781) | – | – | –
7 | – | 40% | 10% | – | His 260: human β-catenin mutant, His 260 substituted by alanine (arm 3) (protein, left off: large carriers; small tags and cut ends) LHNLSHHREGLLAIFKSGGIPALVKMLGSPVDSVLFYAITTLANLLLHQEGAKMAVRLAGGLQKMVALLNKTNVKFLAITTDCLQILAYGNQESKLIILASGGPQALVNIMRTYTYEKLLWTTSRVLKVLSVCSSNKPAIVEAGGMQALGLHLTDPSQRLVQNCLWTLRNLSDAATKQEGMEGLLGTLVQLLGSDDINVVTCAAGILSNLTCNNYKNKMMVCQVGGIEALVRTVLRAGDREDITEPAICALRHLTSRHQEAEMAQNAVRLHYGLPVVVKLLHPPSHWPLIKATVGLIRNLALCPANHAPLREQGAIPRLVQLLVRAHQDTQRRTSMGGTQQQFVEGVRMEEIVEGCTGALHILARDVHNRIVIRGLNTIPLFVQLLYSPIENIQRVAAGVLCELAQDKEAAEAIEAEGATAPLTELLHSRNEGVATYAAAVLFRMSEDKPQDYKKRLSVELTSSLFRTEPMAWNETADLGLDIGAQGEPLGYRQDDPSYRSFHSGGYGQDALGMDPMMEHEMGGHHPGADYPVDGLPDLGHAQDLMDGLPPGDSNQLAWFDTDL | – | – | –
